From patent US20250154271A1 (published 2025)

What was measured:
canine NGF = biological target: T1, canine NGF (canine, UniProt Q29074 110-229 (pig entry), limits assumed); experiment: SPR Biacore, NGF amine-coupled to chip
T1 construct: also called cNGF; canine β-NGF
T1 chain: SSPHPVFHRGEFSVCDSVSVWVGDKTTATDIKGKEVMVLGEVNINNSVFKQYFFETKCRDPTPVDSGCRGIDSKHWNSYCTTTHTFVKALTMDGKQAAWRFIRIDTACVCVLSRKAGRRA
Protocol: (§1) Antibody binding affinities of the antibodies against canine NGF were determined by surface plasmon resonance (SPR) on a Biacore system (Biocore Life Sciences (GE Healthcare), Uppsala, Sweden). Immobilization of canine and rat NGF were obtained by amine coupling 5 μg/mL NGF using N-hydroxysuccinimide (NHS)/1-Ethyl-3-(3-dimethylaminopropyl) carbodiimide (EDC) chemistry. Chips were quenched with ethanolamine and the affinity with which all candidate mAbs bound to the immobilized NGF was evaluated. Various concentrations of canine and felinized anti-NGF antibodies were injected over the NGF surfaces while the association of the antibody to the antigen and the dissociation of the formed complex were monitored in real time. Kinetic analysis was performed to obtain the equilibrium dissociation constant (KD).

rat NGF = biological target: T2, rat NGF (rat, UniProt P25427 122-241); experiment: SPR Biacore, NGF amine-coupled to chip
T2 construct: Immobilised on the Biacore chip by amine coupling; also called rN
Protocol: as §1

T2 sequence (P25427 122-241 limits assumed): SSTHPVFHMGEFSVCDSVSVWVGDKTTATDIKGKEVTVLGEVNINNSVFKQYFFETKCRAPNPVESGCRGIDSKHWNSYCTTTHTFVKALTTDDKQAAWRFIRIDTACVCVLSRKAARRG

B1: fel48L2 chimera (antibody, V domains shown)
VH: EVQLVESGGDLVKPGGSLRLSCVASGFTFSTYGINWVRQAPGKGLQWVAYISSGGSSTYYADPVKGRFTISRDDAKNMLYLQMNSLRAEDTAIYYCAGSRYTYAYGGGYEFHFWGQGTLVTVSS
VL: QAVLNQPASVSGALGQKVTISCSGSTMDIDIFGVSWYQQLPGKAPKLLVDSDGDRPSGIPDRFSGSRSGNSGTLTITGLQAEDEADYHCQSGDSTLGALAIFGGGTHVTVLG
notes: Canine variable domains on feline constant regions
B1 showed a Kd (canine NGF) of 6.25 pM, a koff (canine NGF) of 2.64e-06 s⁻¹ and a kon (canine NGF) of 471000 M⁻¹ s⁻¹. It also gave a Kd (rat NGF) of 0.285 pM, a koff (rat NGF) of 1.1e-07 s⁻¹ and a kon (rat NGF) of 387000 M⁻¹ s⁻¹.
